Molecular target: PepT2^ECD-S427C, labelled for MST (Rattus norvegicus) (UniProt Q63424)
Assay: MST; 1.5 μM labelled ECD (S437C or S427C, blue maleimide) with 0.03–1,000 μM ligand; 22°C; 25 mM MES pH 6.5, 100 mM NaCl

## trypsin (intestinal protease) (enzyme)
  Kd: 6 µM

— PMC4597091
